Experimental data taken from US5843746.

Tests used:
[1] = molecular target: biotinated firefly luciferase bL248 (Luciola lateralis (HEIKE firefly) luciferase fused to a part of E. coli BCCP)
[2] = molecular target: chemically modified biotinated firefly luciferase (Photinus pyralis) [luciferase: P08659]
[3] = molecular target: biotinated firefly luciferase bL203 (Luciola lateralis (HEIKE firefly) luciferase fused to an artificial peptide)

- activity maintained upon binding to streptavidin [1]: 102%
- remaining activity after mixed with streptavidin [2]: 62%
- remaining activity after mixed with streptavidin [3]: 93%
Substance: streptavidin (from UniProt P22629)
